{"source": "paper PMC9834240", "about": "“Senescent cells perturb intestinal stem cell differentiation through Ptk7 induced noncanonical Wnt and YAP signaling” (Nature Communications, 2023)", "molecules": {"B1": {"name": "Wnt5a: recombinant protein, R&D Systems 645-WN-010 (protein)", "chain": "IIGAQPLCSQLAGLSQGQKKLCHLYQDHMQYIGEGAKTGIKECQYQFRHRRWNCSTVDNTSVFGRVMQIGSRETAFTYAVSAAGVVNAMSRACREGELSTCGCSRAARPKDLPRDWLWGGCGDNIDYGYRFAKEFVDARERERIHAKGSYESARILMNLHNNEAGRRTVYNLADVACKCHGVSGSCSLKTCWLQLADFRKVGDALKEKYDSAAAMRLNSRGKLVQVNSRFNSPTTQDLVYIDPSPDYCVRNESTGSLGTQGRLCNKTSEGMDGCELMCCGRGYDQFKTVQTERCHCKFHWCCYVKCKKCTEIVDQFVCK", "modifications": "biotin"}}, "format_in_all_cases": "cell-based", "key": {"[1]": {"test_system": "mouse intestinal organoids", "experiment": "cystic organoid percentage, organoids treated with recombinant Wnt ligands (Wnt3a, Wnt5a, Wnt11)", "details": "for percentage of cystic organoids: Fig. 4e, individual mice, n = 3; for cystic organoids (sheet SF.5b): Wnt5a + DMSO, relative to Untreated = 0", "procedure": "(§1) The jejunum part of the small intestine was removed, flushed with PBS, opened longitudinally, then cut into 0.5 cm pieces. The collected tissues were washed with ice cold PBS multiple times by vortexing and incubated in PBS containing 2.5 mM EDTA for 5 min at 37 °C. After gentle shaking and aspiration, tissues were incubated in PBS containing 5 mM EDTA for 7 min at 37 °C. Tissues were then washed with PBS to remove EDTA and vigorously shaken to release crypts. The released crypts were passed through 70 μm strainers, washed with PBS, and pelleted by centrifugation at 200 × g. Resuspended crypts were mixed with Matrigel (Corning, #356231; Lot#8218007) and pipetted into culture plates. After mixture of crypts and Matrigel solidified, IntestiCult Organoid Growth Medium (Stem Cell Technologies, #06005; Lots #1000021927, #1000034230, #1000037372) was added. Seven days after seeding, organoids were resuspended in dissociation buffer (Gentle Cell Dissociation Reagent; Stem Cell Technologies, #07174), dissociated by pipetting, and seeded for experiments.\n(§2) 3-4 biological replicates of organoids from different mice were used per condition. Organoids were cultured in the indicated media, inhibitors, antibodies and/or recombinant proteins for 5 d and fixed in 4% formaldehyde in PBS. Organoids were imaged with a 4× Plan Fluor objective (NA: 0.13, Nikon) on a Nikon Ti-E inverted microscope equipped with a Neo scMOS camera (Andor, Oxford Instruments), a linear encoded automated stage (Applied Scientific Instrumentation), all run by NIS Elements software (Nikon). Organoids were imaged in brightfield and images covering the whole well were stitched and focused into one image projection with an extended depth of focus module (EDF; Nikon). One hundred to 200 organoids per replicate per condition were counted and used for quantification. The number of budding organoids in each condition was normalized by the number of budding organoids in untreated or DMSO treated controls to calculate cystic organoid percentage:1 Cysticorganoidpercentage=100×1−Numberofbuddingorganoidsfromexperiment/Numberofbuddingorganoidsfromcontrol"}, "[2]": {"test_system": "mouse intestinal organoids", "experiment": "inhibition of Wnt5a-induced cystic organoids", "details": "individual mice, n = 3", "procedure": "as §1, §2"}, "[3]": {"test_system": "cytosolic Ca2+ in mouse intestinal organoids", "experiment": "live Ca2+ imaging of mouse intestinal organoids (GCaMP6f/tdTomato: baselined area under curve, peak number, height, width)", "details": "live organoids expressing GCaMP6f", "procedure": "Z stacks were acquired every 10 s.\nZ-stack images were converted to mean intensity projections and, where required; background was subtracted using a rolling ball algorithm. Segmentation was conducted on a max-projection over-time of the GCaMP6f channel using Cellpose’s pre-trained “Cytoplasm” classifier. Mean intensity traces were measured in each ROI over the time course in both the GCaMP6f and TdTomato channels using scikit-image[138]. Ca^2+ oscillation patterns were calculated in an unsupervised, automated manner using MATLAB. Mean intensity traces were smoothed using a Savitzky-Golay filter and peaks were identified using the “findpeaks” algorithm from the MATLAB Signal Processing Toolbox. Graphs for GCaMP6f/tdTomato fluorescence ratio, peak numbers, peak height, peak width and baselined area under the curve were generated using Python matplotlib and seaborn packages. Statistical analysis was performed using Python SciPy and scikit-post-hoc packages."}, "[4]": {"test_system": "β-Catenin-dependent Wnt signaling (HEK293-TB cells)", "experiment": "TOPbrite dual-luciferase Wnt reporter assay", "details": "SF.3e", "procedure": "Generation of HEK293 cells stably expressing a TOPbrite firefly luciferase Wnt reporter and pRL-SV40 Renilla luciferase (HEK293-TB) was previously described. HEK293-TB cells were maintained in DMEM/F12 (50:50), supplemented with 10% FBS, 2 mM Glutamax (Gibco, #35050-061) and 40 μg/ml hygromycin (Cellgro, #30-240-CR). For the luciferase reporter assay, HEK293-TB cells were seeded in 96-well plates (Falcon, #353377). The next day, cells were treated with indicated Wnt ligands (50 ng/ml) or CM diluted in culture media. After 24 h, the firefly and Renilla luciferase activity was measured using Dual-Glo Luciferase Assay system (Promega, #E2940) on a Perkin Elmer EnVision multilabel reader. The ratios of firefly luminescence to Renilla luminescence were calculated and normalized to control samples that were not treated."}, "[5]": {"test_system": "YAP in mouse intestinal organoids", "experiment": "whole mount immunostaining for YAP nuclear localization", "procedure": "For whole mount staining, freshly passaged crypts were mixed with Matrigel (Corning, #356231) and mounted to µ-Slide 8 well chamber slides (ibidi, #80826). Media were changed every 2–3 d. 5 days later, organoids in the chamber slides were then fixed in 4% formaldehyde in PBS for 30 min, permeabilized with 0.5% Triton X-100 for 1 h, and incubated in blocking solution (3% normal donkey serum (Sigma-Aldrich, #566460) and 5% BSA (Sigma-Aldrich, #A7979) in 0.1% Triton X-100 + PBS) for 1 h. Primary and secondary antibodies were diluted in blocking solution and added to fixed organoids. Organoids were incubated with primary antibodies overnight at 4 °C and with secondary antibodies for 2 h. ProLong Diamond Antifade Mountant (Invitrogen, # P36970) was added. Images were acquired with a Yokogawa CSU-W1/Zeiss 3i Marianas spinning disk confocal microscopy system. For each organoid, Z-planes up to 100 μm with 1 or 1.5 μm z-steps were acquired to quantify the number of cell types."}, "[6]": {"test_system": "mouse intestinal organoids", "experiment": "RNAseq of intestinal organoids", "details": "2 days", "procedure": "Total RNA was isolated using the RNeasy Plus Mini Kit (Qiagen, #74134) per manufacturer’s instructions. Total RNA was quantified with Qubit RNA HS Assay Kit (Thermo Fisher Scientific, #Q32852) and quality was assessed using RNA ScreenTape on 4200 TapeStation (Agilent Technologies, #5067-5576). cDNA library was generated from 2 ng of total RNA using Smart-Seq V4 Ultra Low Input RNA Kit (Takara, #634894). 150 pg of cDNA was used to make sequencing libraries by Nextera XT DNA Sample Preparation Kit (Illumina, #FC-131-1024). Libraries were quantified with Qubit dsDNA HS Assay Kit (Thermo Fisher Scientific, #Q32851) and the average library size was determined using D1000 ScreenTape on 4200 TapeStation (Agilent Technologies, #5067-5582). Libraries were pooled and sequenced on NovaSeq 6000 (Illumina) to generate 30 millions single-end 50-base pair reads for each sample.\nSequencing reads were filtered and aligned using HTSeqGenie v4.2.2. […] Reads within coding sequences were counted to determine an estimate of gene expression. Read counts were scaled by library size, quantile normalized and precision weights were calculated using the voom R package. […] Differential gene expression was calculated using voom+limma with multiple-hypothesis correction of P values performed using the Benjamini-Hochberg method. […]"}}, "note": "Values joined by “and” are separate entries in the source; they are usually repeats but may differ in a detail not shown here. Identical values can stand only once. “Also recorded” adds a separate entry of the source.", "data": [{"molecule": "B1", "values": [{"measurement": "percentage of cystic organoids", "setting": "[1]; Wnt5a 25 ng/ml", "result": "14.1026% and 5.06% and 6.32%"}, {"measurement": "percentage of cystic organoids", "setting": "[1]; Wnt5a 50 ng/ml", "result": "23.3312% and 3.761% and 10.619%"}, {"measurement": "percentage of cystic organoids", "setting": "[1]; Wnt5a 100 ng/ml", "result": "26.0174% and 31.7553% and 21.762%"}, {"measurement": "percentage of cystic organoids", "setting": "[1]; Wnt5a 250 ng/ml", "result": "40.092% and 41.2431% and 44.3989%"}, {"measurement": "percentage of cystic organoids", "setting": "[1]; Wnt5a 500 ng/ml", "result": "62.8247% and 56.8452% and 53.6325%"}, {"measurement": "cystic organoids (sheet SF.5b)", "setting": "[1]; replicate 1", "result": 22.713}, {"measurement": "cystic organoids (sheet SF.5b)", "setting": "[1]; replicate 2", "result": 18.3144}, {"measurement": "cystic organoids (sheet SF.5b)", "setting": "[1]; replicate 3", "result": 19.185}, {"measurement": "cystic organoids (sheet SF.5b)", "setting": "[1]; replicate 4", "result": 14.2949}, {"measurement": "cystic organoid size", "setting": "[1]; Wnt5a compared to Wnt3a", "result": "larger than those treated with Wnt3a"}, {"measurement": "induction of cystic organoids", "setting": "[1]; recombinant Wnt ligand added to crypt cultures", "result": "dose-dependently increased organoids with cystic morphology"}, {"measurement": "percentage of cystic organoids", "setting": "[2]; Fig. 4g, Wnt5a + DMSO", "result": "46.8995% and 39.0061% and 36.0342%"}, {"measurement": "percentage of cystic organoids", "setting": "[2]; Fig. 4i, Wnt5a + IgG", "result": "49.9365% and 63.1809% and 67.3433%"}, {"measurement": "effect on cytosolic Ca2+ levels and oscillations", "setting": "[3]", "result": "cytosolic Ca^2+ levels and oscillations increased; also recorded: modulate cytosolic Ca^2+ oscillations"}, {"measurement": "TOPbrite dual-luciferase Wnt reporter activity", "setting": "[4]; replicate 1", "result": 0.3121}, {"measurement": "TOPbrite dual-luciferase Wnt reporter activity", "setting": "[4]; replicate 2", "result": 0.2591}, {"measurement": "TOPbrite dual-luciferase Wnt reporter activity", "setting": "[4]; replicate 3", "result": 1.226}, {"measurement": "TOPbrite dual-luciferase Wnt reporter activity", "setting": "[4]; replicate 4", "result": 1.185}, {"measurement": "effect on nuclear localization of YAP", "setting": "[5]", "result": "increased nuclear localization of YAP"}, {"measurement": "Ptk7-dependent DEGs with TEAD binding motifs", "setting": "[6]", "result": "increased expression"}]}]}
